Reference: paper PMC10864110

B1: WDR74 dsDNA (dsDNA)
DNA 1: CGTTCCTGGAAGTACTGCAATACCAGGTCGATGCGTGGAGTGGACGGAGCAAGCTCCTATTCCATCTCCTATTTCCAAAAATCCA
DNA 2: TGGATTTTTGGAAATAGGAGATGGAATAGGAGCTTGCTCCGTCCACTCCACGCATCGACCTGGTATTGCAGTACTTCCAGGAACG
B2: CCND1 dsDNA (dsDNA)
DNA 1: CAGTAGCAGCGAGCAGCAGAGTCCGCACGCTCCGGCGAGGGGCAGAAGAGCGCGAGGGAGCGCGGGGCAGCAGAAGCGAGAGCCG
DNA 2: CGGCTCTCGCTTCTGCTGCCCCGCGCTCCCTCGCGCTCTTCTGCCCCTCGCCGGAGCGTGCGGACTCTGCTGCTCGCTGCTACTG
B3: LINC00869 dsDNA (dsDNA)
DNA 1: TGTAAAGGGTGAGGCATATGAGGCTGCGGCGGGGCGGAGGGGCGTGAGCTTATACTTATGTTTATCTGGCAGAAGAAATGTTATG
DNA 2: CATAACATTTCTTCTGCCAGATAAACATAAGTATAAGCTCACGCCCCTCCGCCCCGCCGCAGCCTCATATGCCTCACCCTTTACA

What follows are binders tested against GST-PC4 WT (Homo sapiens, UniProt P53999 2-127) (assay: EMSA).

Binding result, no binding:
B1, B2, B3
